Target: recombinant murine RIIα (murine, UniProt P12367)
Experiment: in situ overlay of fixed, permeabilized PMA-treated HEL cells with recombinant murine RIIα, immunofluorescence
Protocol: After 1 hr the coverslips were carefully washed in PBS and 0.2% BSA and incubated with either a mixture of FITC conjugated donkey anti-rabbit secondary antibody (1:100 dilution, Jackson ImmunoReasearch Laboratories Inc, West Grove, Pa.) and rhodamine conjugated phalloidin (1 unit/coverslip, Molecular Probes, Inc, Eugene, Oreg.) or secondary antibody alone. […] Prior to incubation with primary antibody, cells were incubated with 80 nM recombinant murine RII for 2 hr and unbound RII removed by washing three times in PBS and 0.2% BSA. […] Control coverslips were treated with the antibody to RII in the absence of exogenous murine RII. Cells were examined using a Leica confocal laser scanning system equipped with a Leitz Fluovert-FU inverted microscope and an argon/krypton laser.
Fixed and permeabilized cells pre-treated with PMA were overlayed with recombinant murine RIIα.

binding result: binds
B1: gravin (full length, human; 250 kDa protein of cell lysates) (other)
chain: MGAGSSTEQRSPEQPPEGSSTPAEPEPSGGGPSAEAAPDTTADPAIAASDPATKLLQKNGQLSTINGVAEQDELSLQEGDLNGQKGALNGQGALNSQEEEEVIVTEVGQRDSEDVSERDSDKEMATKSAVVHDITDDGQEENRNIEQIPSSESNLEELTQPTESQANDIGFKKVFKFVGFKFTVKKDKTEKPDTVQLLTVKKDEGEGAAGAGDHQDPSLGAGEAASKESEPKQSTEKPEETLKREQSHAEISPPAESGQAVEECKEEGEEKQEKEPSKSAESPTSPVTSETGSTFKKFFTQGWAGWRKKTSFRKPKEDEVEASEKKKEQEPEKVDTEEDGKAEVASEKLTASEQAHPQEPAESAHEPRLSAEYEKVELPSEEQVSGSQGPSEEKPAPLATEVFDEKIEVHQEEVVAEVHVSTVEERTEEQKTEVEETAGSVPAEELVGMDAEPQEAEPAKELVKLKETCVSGEDPTQGADLSPDEKVLSKPPEGVVSEVEMLSSQERMKVQGSPLKKLFTSTGLKKLSGKKQKGKRGGGDEESGEHTQVPADSPDSQEEQKGESSASSPEEPEEITCLEKGLAEVQQDGEAEEGATSDGEKKREGVTPWASFKKMVTPKKRVRRPSESDKEDELDKVKSATLSSTESTASEMQEEMKGSVEEPKPEEPKRKVDTSVSWEALICVGSSKKRARRRSSSDEEGGPKAMGGDHQKADEAGKDKETGTDGILAGSQEHDPGQGSSSPEQAGSPTEGEGVSTWESFKRLVTPRKKSKSKLEEKSEDSIAGSGVEHSTPDTEPGKEESWVSIKKFIPGRRKKRPDGKQEQAPVEDAGPTGANEDDSDVPAVVPLSEYDAVEREKMEAQQAQKGAEQPEQKAATEVSKELSESQVHMMAAAVADGTRAATIIEERSPSWISASVTEPLEQVEAEAALLTEEVLEREVIAEEEPPTVTEPLPENREARGDTVVSEAELTPEAVTAAETAGPLGSEEGTEASAAEETTEMVSAVSQLTDSPDTTEEATPVQEVEGGVPDIEEQERRTQEVLQAVAEKVKEESQLPGTGGPEDVLQPVQRAEAERPEEQAEASGLKKETDVVLKVDAQEAKTEPFTQGKVVGQTTPESFEKAPQVTESIESSELVTTCQAETLAGVKSQEMVMEQAIPPDSVETPTDSETDGSTPVADFDAPGTTQKDEIVEIHEENEVHLVPVRGTEAEAVPAQKERPPAPSSFVFQEETKEQSKMEDTLEHTDKEVSVETVSILSKTEGTQEADQYADEKTKDVPFFEGLEGSIDTGITVSREKVTEVALKGEGTEEAECKKDDALELQSHAKSPPSPVEREMVVQVEREKTEAEPTHVNEEKLEHETAVTVSEEVSKQLLQTVNVPIIDGAKEVSSLEGSPPPCLGQEEAVCTKIQVQSSEASFTLTAAAEEEKVLGETANILETGETLEPAGAHLVLEEKSSEKNEDFAAHPGEDAVPTGPDCQAKSTPVIVSATTKKGLSSDLEGEKTTSLKWKSDEVDEQVACQEVKVSVAIEDLEPENGILELETKSSKLVQNIIQTAVDQFVRTEETATEMLTSELQTQAHVIKADSQDAGQETEKEGEEPQASAQDETPITSAKEESESTAVGQAHSDISKDMSEASEKTMTVEVEGSTVNDQQLEEVVLPSEEEGGGAGTKSVPEDDGHALLAERIEKSLVEPKEDEKGDDVDDPENQNSALADTDASGGLTKESPDTNGPKQKEKEDAQEVELQEGKVHSESDKAITPQAQEELQKQERESAKSELTES

From US6090929, “Protein binding fragments of gravin” (Oregon Health Science University, dated 2000)
